This note sets out measurements from article PMC314469, “Protein Interaction Networks by Proteome Peptide Scanning” (PLoS Biology, 2004).

For the assay, the target named is T1, Abp1 SH3 (ABP1_YEAST), P15891.
T1 chain: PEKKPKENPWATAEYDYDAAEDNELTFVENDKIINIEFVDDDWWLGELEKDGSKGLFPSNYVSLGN
Briefly: SPOT array.
For the molecule DHHNIDIDPLPRRP [YLR299W 80-93], the normalised SPOT signal, Boehringer light units (BLU); mean over the file's lines of this peptide stood at 122.
Molecule DDLETYVPHKKRP [YOL084W 269-281] registered a normalised SPOT signal, Boehringer light units (BLU); mean over the file's lines of this peptide of 120.
Under DFRNPLLPIDNRP [YGL170C 266-278] stands 138.
Under DASSVELTEVPSKP [YDR464W 561-574] stands 25.2; under DESTVNEPKTRRP [YLR417W 380-392], 95.6.
Take DGKVSPPPIRNRP [YPL150W 616-628]: the normalised SPOT signal, Boehringer light units (BLU); mean over the file's lines of this peptide came out at 6430.
Under DESFTASDVIPKKP [YOL055C 307-320] stands 142.
Consider DSVRYFEPKTRRP [YER090W 132-144], for which the normalised SPOT signal, Boehringer light units (BLU); mean over the file's lines of this peptide turned out to be 659.
The value for DIDMPVNPPFRKP [YBL015W 191-203] was 257.
As for DESFTASDAVPKKP [YPR121W 328-341], the normalised SPOT signal, Boehringer light units (BLU); mean over the file's lines of this peptide came to 112.
Under SFKIFPLPKDGKP [YOR056C 307-319] stands 102; under DGTAAAGPLDLKP [YCR077C 93-105], 47.1; under DDLIRLTVKKPARP [YKL220C 443-456], 446.
Consider SASILLLEALPKKP [YDR135C 180-193], for which the normalised SPOT signal, Boehringer light units (BLU); mean over the file's lines of this peptide turned out to be 112.
As to DGGMAFNPDPKKP [YER095W 332-344], the normalised SPOT signal, Boehringer light units (BLU); mean over the file's lines of this peptide stood at 105.
Under DEEDDEDPVSPKP [YGL197W 684-696] stands 90.3.
The molecule DGKTMTKPFVEKP [YLR410W 340-352] gave a normalised SPOT signal, Boehringer light units (BLU); mean over the file's lines of this peptide of 171.
With SSSSSGLPATDKP [YOR068C 68-80], the normalised SPOT signal, Boehringer light units (BLU); mean over the file's lines of this peptide came to 59.6.
In turn, DEGYRESELPPTKP [YGR013W 516-529] displayed a normalised SPOT signal, Boehringer light units (BLU); mean over the file's lines of this peptide of 62.8.
In turn, DELPKYEDLFPKKP [YKL020C 937-950] gave a normalised SPOT signal, Boehringer light units (BLU); mean over the file's lines of this peptide of 132.
Consider DDFSEIKSNSPSKP [YOL125W 257-270], for which the normalised SPOT signal, Boehringer light units (BLU); mean over the file's lines of this peptide is 58.4.
Under AYNLNVPPPKKRP [YHR009C 132-144] stands 1510.
Under SVYALSSQDEPIRP [YLR450W 583-596] stands 37.7; under DIADLEEPFLPRP [YIL109C 377-389], 65.6; under DSLFTKSLEDPEKP [YBR257W 10-23], 113.
SEMFRDLPESKKP [YOR175C 203-215] registered a normalised SPOT signal, Boehringer light units (BLU); mean over the file's lines of this peptide of 86.3.
The molecule DGKILPLPKADKP [YGR134W 1092-1104] had a normalised SPOT signal, Boehringer light units (BLU); mean over the file's lines of this peptide of 18.9.
Under SAKPMNIPEVLKP [YLR077W 535-547] stands 144; under SGVLITDKEYPVRP [YKL196C 76-89], 56; under SVRIIKLPTVIKP [YDR407C 928-940], 175.
The value for SSYGSWSPYASKP [YMR244W 79-91] was 46.2; that for SHTKNTHPDFSKP [YLR374C 54-66] was 39.3.
The value for SSQGINVPGTKKP [YIL029C 115-127] was 178; that for SLWWNLEPQESKP [YMR003W 182-194] was 68; that for DHVDIFVPSGGRP [YDL215C 852-864] was 33.3.
DAENIRVNFVPSKP [YER047C 185-198] came in with a normalised SPOT signal, Boehringer light units (BLU); mean over the file's lines of this peptide of 133.
Take DDGTFSIYSIPSKP [YPL100W 471-484]: the normalised SPOT signal, Boehringer light units (BLU); mean over the file's lines of this peptide was 169.
The value for DHPKLKSPISSKP [YPR186C 218-230] was 98.
Under SDTDTLPEAPPAKP [YOR066W 218-231] stands 108; under DGYTRFHDETPAKP [YER027C 294-307], 101; under DGKPTATPSPFRP [YMR153W 198-210], 158.
Molecule DKKIGSMAINPMRP [YDL156W 333-346] yielded a normalised SPOT signal, Boehringer light units (BLU); mean over the file's lines of this peptide of 183.
Under DAGPSFSPLHKKP [YDR096W 741-753] stands 231.
The value for DIEMKDVSSKPSKP [YPR070W 510-523] was 85.7; that for DKKDLDSPIEVKP [YKL092C 848-860] was 36.5; that for DHGLYNFPSSVRP [YGR271W 1320-1332] was 77.3.
SINNSEVPTNDKP [YPR068C 139-151] had a normalised SPOT signal, Boehringer light units (BLU); mean over the file's lines of this peptide of 72.1.
Under SSQEDGQPRVLKP [YLR106C 2240-2252] stands 118; under SFTAYSSPKKNKP [YPL100W 257-269], 324.
AWYISYGEWGPRRP [YIL111W 69-82]: the normalised SPOT signal, Boehringer light units (BLU); mean over the file's lines of this peptide stood at 78.4.
On to DILDDLSSQKPQKP [YJR033C 1330-1343], for which the normalised SPOT signal, Boehringer light units (BLU); mean over the file's lines of this peptide was found to be 131.
The value for SKVDDLIPLASRP [YGL044C 219-231] was 111; that for DENEKESRHYPIKP [YMR147W 118-131] was 104.
Under SRIPSLAPHFGKP [YKL103C 202-214] stands 99.3.
